Assay [1] has as its target T1, Human P-cadherin on cells (human, UniProt P22223 108-829).
T1 construct: whole, on cells; Endogenous P-cadherin on tumour cell lines; also called hPro1
Nature of the assay: FACS on DU-145 cells. The method, then:
(§1) Binding of the test antibodies to P-cadherin expressed on cells was determined by flow cytometry analysis. […] 1×10⁵ cells/well (100 μL) were added to each well of a 96-well U-plate (Corning, #3799) and centrifuged at 1500 rpm (Eppendorf, #5810R) for 5 minutes before removing the supernatant. Antibodies serially diluted in 1% BSA/1×PBS (Ca+/Mg+) were added at 100 μL/well to the pelleted cells and incubated at 4° C. for 1 hour. Anon-related hIgG1 antibody was used as an isotype control. Cells were washed two times with 180 μL/well of 1% BSA/1×PBS (Ca+/Mg+) by centrifugation at 1500 rpm for 5 minutes at 4° C. Pelleted cells were resuspended in 100 μL/well Alexa647 conjugated Goat anti-human IgG Fc (Jackson, #109-605-098) 1:500 diluted in 1% BSA/1×PBS (Ca+/Mg+) for 30 minutes at 4° C. in the dark. Cells were then washed two times as described above. After the final wash, cells were resuspended in 100 μL 1% BSA/1×PBS (Ca+/Mg+) and fluorescence values were measured with a FACS Canto II cytometer (BD Biosciences). The amount of cell surface bound anti-P-cadherin antibody was assessed by measuring the mean fluorescence (MFI). The FACS raw data were analyzed by FlowJo software, wells containing no antibody or secondary antibody only were used to establish background fluorescence. Binding EC50 values were obtained by the four-parameter non-linear regression analysis using GraphPad Prism6 software.

Assay [2] deals with T1, Human P-cadherin on cells. As to the kind of experiment: cell-based or functional assay.
The target of assay [3] is T2, Cyno P-cadherin on W319-CHOK1.cynoPro1.FL cells (cynomolgus, UniProt A0A2K5WPN9 108-829).
T2 construct: whole, on cells; also called cynomolgus P-cadherin; W391-CHOK1.cynoPro1.FL (transient)
As to the kind of experiment: FACS on CHOK1 cells transiently expressing cyno P-cadherin. The method, then:
as §1, with “Binding EC50 values were obtained by the four-parameter non-linear regression analysis using GraphPad Prism6 software.” left out
Binding of the test antibodies to cynomolgus P-cadherin expressed on cells was determined by flow cytometry analysis. […]

The target in assay [4] is T1, Human P-cadherin on cells. Nature of the assay: FACS on HCT-116 cells, antibody kept in human serum at 37 C, Day 1. As for the experimental part: The antibody stability in human serum was tested by FACS. Briefly, human serum was freshly isolated by centrifuging the fresh blood twice at 4000 rpm for 10 minutes. […] As a control, antibodies serum mix was frozen immediately without 37° C. incubation. For the FACS analysis, the samples from different time points were free-thawed simultaneously at 4° C. […] The cells were washed twice with 1% BSA/1×PBS (Ca+/Mg+). Alexa647 conjugated Goat anti-human IgG Fc (Jackson, #109-605-098) 1:500 diluted in 1% BSA/1×PBS (Ca+/Mg+) were added to the cells and incubated at 4° C. for 30 minutes. Cells were washed twice in the same buffer and the mean fluorescence (MFI) of stained cells was measured using a FACS Canto II cytometer (BD Biosciences) and analyzed by FlowJo. Wells containing no antibody or secondary antibody only were used to establish background fluorescence. Four-parameter non-linear regression analysis was used to obtain EC50 values for cell binding using GraphPad Prism6 software.

As usually defined, the EC50 is the midpoint of the concentration-response curve. A high value points to a less potent agent.

T1 sequence (P22223 108-829): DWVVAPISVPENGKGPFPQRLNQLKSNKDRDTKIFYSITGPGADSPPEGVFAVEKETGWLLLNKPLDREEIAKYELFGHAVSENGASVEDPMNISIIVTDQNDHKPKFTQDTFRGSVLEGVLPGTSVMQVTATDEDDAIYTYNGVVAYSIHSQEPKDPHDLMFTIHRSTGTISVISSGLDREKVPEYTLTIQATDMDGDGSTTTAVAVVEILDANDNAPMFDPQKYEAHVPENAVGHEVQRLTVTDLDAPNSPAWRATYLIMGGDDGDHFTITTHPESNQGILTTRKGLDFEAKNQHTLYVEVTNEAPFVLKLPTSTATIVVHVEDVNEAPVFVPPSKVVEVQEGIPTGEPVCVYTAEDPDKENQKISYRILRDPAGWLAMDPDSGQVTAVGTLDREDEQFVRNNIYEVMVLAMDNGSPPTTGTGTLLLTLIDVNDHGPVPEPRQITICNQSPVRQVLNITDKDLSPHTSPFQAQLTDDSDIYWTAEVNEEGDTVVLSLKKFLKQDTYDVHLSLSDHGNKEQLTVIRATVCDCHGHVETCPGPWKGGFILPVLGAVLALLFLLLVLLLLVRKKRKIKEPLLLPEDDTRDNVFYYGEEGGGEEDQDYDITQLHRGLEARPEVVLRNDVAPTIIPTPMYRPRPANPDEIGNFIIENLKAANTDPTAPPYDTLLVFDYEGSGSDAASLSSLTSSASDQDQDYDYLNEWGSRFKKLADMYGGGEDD

B1: W3195-1.53.1-p1-uIgG1L (antibody)
heavy: not shown
light: SYELTQPPSVSVSPGQTAQITCSGDKLGDKFASWYQQKSGQSPVVVIYQDNKRPSGFPERFSGSNSGNTATLTISGTQAMDEADYYCQAWDSSIVVFGGGTKLTVLGQPKAAPSVTLFPPSSEELQANKATLVCLISDFYPGAVTVAWKADSSPVKAGVETTTPSKQSNNKYAASSYLSLTPEQWKSHRSYSCQVTHEGSTVEKTVAPTECS
notes: also called W3195-p1 antibody
In the case of B1, in assay [1], the EC50 came to 0.07 nM and the “Max MFI” value turned out to be 2100. For the same molecule, in assay [2], the “internalization, Fab-ZAP on HCC-1954, IC50” value turned out to be 0.069 nM and the “internalization, Fab-ZAP on HCC-1954, Max Inh %” value was determined as 81%. For the same molecule, the response in assay [3] was half-maximal at 0.095 nM (EC50). For the same molecule, the EC50 in assay [4] is 0.19 nM.

The record behind these values is patent publication US20240034786A1 (WUXI BIOLOGICS IRELAND, published 2024).
